This note sets out measurements from publication PMC12102759 (2025).

B1: SH3BP2 peptide 408-423 (SH3 domain-binding protein 2), 16-mer library wild type / TNKS ANK (TNKS 12 ANK repeats, residues 174-649) (parent complex)
chain 1: PQLPHLQRSPPDGQSF
chain 2: TGVPAVSGALRELLEACRNGDVSRVKRLVDAANVNAKDMAGRKSSPLHFAAGFGRKDVVEHLLQMGANVHARDDGGLIPLHNACSFGHAEVVSLLLCQGADPNARDNWNYTPLHEAAIKGKIDVCIVLLQHGADPNIRNTDGKSALDLADPSAKAVLTGEYKKDELLEAARSGNEEKLMALLTPLNVNCHASDGRKSTPLHLAAGYNRVRIVQLLLQHGADVHAKDKGGLVPLHNACSYGHYEVTELLLKHGACVNAMDLWQFTPLHEAASKNRVEVCSLLLSHGADPTLVNCHGKSAVDMAPTPELRERLTYEFKGHSLLQAAREADLAKVKKTLALEIINFKQPQSHETALHCAVASLHPKRKQVTELLLRKGANVNEKNKDFMTPLHVAAERAHNDVMEVLHKHGAKMNALDTLGQTALHRAALAGHLQTCRLLLSYGSDPSIISLQGFTAAQMGNEAVQQILSESTPIRTSD
B2: AXIN1 peptide 237-252 (Axin-1), 16-mer library wild type / PP2A B56 (PPP2R5A B56 domain, residues 1-486) (parent complex)
chain 1: YLPTLNEDEEWKADQD
chain 2: not shown

In the first test the parent is B1. Nature of the test: proteomic peptide phage display deep mutational scan (ProP-PD DMS): M13 P8 16-mer library selected against immobilised GST-tagged bait for four days (rounds), NGS of the eluted pools per day and pseudo-replica; bait immobilised on MaxiSorp plates (10 µg), library pre-cleared on GST, 2 h binding at 4 °C, five washes; one round per day, days 1-4; value from days 2 and 3.
As to chain 1 L3Q, the screen value is 0.000641 average fractional NGS count over selection days 2 and 3 (reads of this peptide / all reads for the bait, averaged over ….

Regarding chain 1 L3K, the screen value is 0.000138 average fractional NGS count over selection days 2 and 3 (reads of this peptide / all reads for the bait, averaged over ….

Regarding chain 1 L3H, the screen value was 0.000462 average fractional NGS count over selection days 2 and 3 (reads of this peptide / all reads for the bait, averaged over ….

For the variant chain 1 L3Y, the screen value was 0.000217 average fractional NGS count over selection days 2 and 3 (reads of this peptide / all reads for the bait, averaged over ….

Consider chain 1 L3F, for which the screen value was 0.000552 average fractional NGS count over selection days 2 and 3 (reads of this peptide / all reads for the bait, averaged over ….

For the variant chain 1 R8E, the screen value was 0.000101 average fractional NGS count over selection days 2 and 3 (reads of this peptide / all reads for the bait, averaged over ….

Consider chain 1 S9H, for which the screen value was 0.00219 average fractional NGS count over selection days 2 and 3 (reads of this peptide / all reads for the bait, averaged over ….

Take chain 1 S9Q: the screen value is 0.00451 average fractional NGS count over selection days 2 and 3 (reads of this peptide / all reads for the bait, averaged over ….

chain 1 S9L: the screen value was 0.00406 average fractional NGS count over selection days 2 and 3 (reads of this peptide / all reads for the bait, averaged over ….

chain 1 S9D: the screen value was 0.00106 average fractional NGS count over selection days 2 and 3 (reads of this peptide / all reads for the bait, averaged over ….

Regarding chain 1 S9N, the screen value was 0.000282 average fractional NGS count over selection days 2 and 3 (reads of this peptide / all reads for the bait, averaged over ….

For the variant chain 1 S9Y, the screen value is 0.000793 average fractional NGS count over selection days 2 and 3 (reads of this peptide / all reads for the bait, averaged over ….

Consider chain 1 F16D, for which the screen value is 0.000232 average fractional NGS count over selection days 2 and 3 (reads of this peptide / all reads for the bait, averaged over ….

For chain 1 F16Q, the screen value was 0.000905 average fractional NGS count over selection days 2 and 3 (reads of this peptide / all reads for the bait, averaged over ….

As for chain 1 F16A, the screen value is 0.00179 average fractional NGS count over selection days 2 and 3 (reads of this peptide / all reads for the bait, averaged over ….

For the variant chain 1 F16E, the screen value was 0.000221 average fractional NGS count over selection days 2 and 3 (reads of this peptide / all reads for the bait, averaged over ….

Turning to chain 1 F16M, the screen value is 0.00196 average fractional NGS count over selection days 2 and 3 (reads of this peptide / all reads for the bait, averaged over ….

Take chain 1 S15Q: the screen value is 0.000297 average fractional NGS count over selection days 2 and 3 (reads of this peptide / all reads for the bait, averaged over ….

Regarding chain 1 S15R, the screen value was 0.000309 average fractional NGS count over selection days 2 and 3 (reads of this peptide / all reads for the bait, averaged over ….

Take chain 1 Q7F: the screen value was 0.00823 average fractional NGS count over selection days 2 and 3 (reads of this peptide / all reads for the bait, averaged over ….

On to chain 1 Q7H, for which the screen value is 0.00147 average fractional NGS count over selection days 2 and 3 (reads of this peptide / all reads for the bait, averaged over ….

Turning to chain 1 Q7S, the screen value was 0.000276 average fractional NGS count over selection days 2 and 3 (reads of this peptide / all reads for the bait, averaged over ….

Consider chain 1 Q7M, for which the screen value was 0.00158 average fractional NGS count over selection days 2 and 3 (reads of this peptide / all reads for the bait, averaged over ….

On to chain 1 Q7V, for which the screen value is 0.00169 average fractional NGS count over selection days 2 and 3 (reads of this peptide / all reads for the bait, averaged over ….

For chain 1 H5T, the screen value is 0.000644 average fractional NGS count over selection days 2 and 3 (reads of this peptide / all reads for the bait, averaged over ….

With chain 1 H5Y, the screen value is 0.000149 average fractional NGS count over selection days 2 and 3 (reads of this peptide / all reads for the bait, averaged over ….

Turning to chain 1 H5P, the screen value is 0.000222 average fractional NGS count over selection days 2 and 3 (reads of this peptide / all reads for the bait, averaged over ….

Consider chain 1 H5I, for which the screen value was 0.000472 average fractional NGS count over selection days 2 and 3 (reads of this peptide / all reads for the bait, averaged over ….

With chain 1 P11A, the screen value is 0.000639 average fractional NGS count over selection days 2 and 3 (reads of this peptide / all reads for the bait, averaged over ….

Regarding chain 1 P10F, the screen value is 0.000203 average fractional NGS count over selection days 2 and 3 (reads of this peptide / all reads for the bait, averaged over ….

As to chain 1 P10L, the screen value is 0.00106 average fractional NGS count over selection days 2 and 3 (reads of this peptide / all reads for the bait, averaged over ….

For chain 1 P10A, the screen value is 0.000707 average fractional NGS count over selection days 2 and 3 (reads of this peptide / all reads for the bait, averaged over ….

As to chain 1 P10V, the screen value is 0.00118 average fractional NGS count over selection days 2 and 3 (reads of this peptide / all reads for the bait, averaged over ….

In the case of chain 1 P4N, the screen value is 0.000673 average fractional NGS count over selection days 2 and 3 (reads of this peptide / all reads for the bait, averaged over ….

Turning to chain 1 P4G, the screen value was 0.000551 average fractional NGS count over selection days 2 and 3 (reads of this peptide / all reads for the bait, averaged over ….

On to chain 1 P4Y, for which the screen value is 0.000273 average fractional NGS count over selection days 2 and 3 (reads of this peptide / all reads for the bait, averaged over ….

On to chain 1 P4T, for which the screen value is 0.000173 average fractional NGS count over selection days 2 and 3 (reads of this peptide / all reads for the bait, averaged over ….

With chain 1 Q2T, the screen value is 0.000819 average fractional NGS count over selection days 2 and 3 (reads of this peptide / all reads for the bait, averaged over ….

As for chain 1 Q2I, the screen value is 0.000434 average fractional NGS count over selection days 2 and 3 (reads of this peptide / all reads for the bait, averaged over ….

chain 1 Q2Y: the screen value is 0.000238 average fractional NGS count over selection days 2 and 3 (reads of this peptide / all reads for the bait, averaged over ….

In the case of chain 1 Q2H, the screen value was 0.000483 average fractional NGS count over selection days 2 and 3 (reads of this peptide / all reads for the bait, averaged over ….

Take chain 1 Q2V: the screen value is 0.000821 average fractional NGS count over selection days 2 and 3 (reads of this peptide / all reads for the bait, averaged over ….

Consider chain 1 D12L, for which the screen value was 0.000574 average fractional NGS count over selection days 2 and 3 (reads of this peptide / all reads for the bait, averaged over ….

As for chain 1 D12V, the screen value is 0.000643 average fractional NGS count over selection days 2 and 3 (reads of this peptide / all reads for the bait, averaged over ….

Take chain 1 D12A: the screen value is 0.000288 average fractional NGS count over selection days 2 and 3 (reads of this peptide / all reads for the bait, averaged over ….

Turning to chain 1 Q14T, the screen value is 0.00291 average fractional NGS count over selection days 2 and 3 (reads of this peptide / all reads for the bait, averaged over ….

For the variant chain 1 Q14F, the screen value was 0.000219 average fractional NGS count over selection days 2 and 3 (reads of this peptide / all reads for the bait, averaged over ….

Turning to chain 1 Q14N, the screen value is 0.000561 average fractional NGS count over selection days 2 and 3 (reads of this peptide / all reads for the bait, averaged over ….

Turning to chain 1 Q14A, the screen value is 0.00095 average fractional NGS count over selection days 2 and 3 (reads of this peptide / all reads for the bait, averaged over ….

With chain 1 Q14L, the screen value is 0.000462 average fractional NGS count over selection days 2 and 3 (reads of this peptide / all reads for the bait, averaged over ….

chain 1 Q14K: the screen value was 0.00049 average fractional NGS count over selection days 2 and 3 (reads of this peptide / all reads for the bait, averaged over ….

Take chain 1 Q14H: the screen value is 0.00138 average fractional NGS count over selection days 2 and 3 (reads of this peptide / all reads for the bait, averaged over ….

Turning to chain 1 Q14R, the screen value was 0.000901 average fractional NGS count over selection days 2 and 3 (reads of this peptide / all reads for the bait, averaged over ….

On to chain 1 L6A, for which the screen value was 0.00118 average fractional NGS count over selection days 2 and 3 (reads of this peptide / all reads for the bait, averaged over ….

Take chain 1 L6V: the screen value was 0.000569 average fractional NGS count over selection days 2 and 3 (reads of this peptide / all reads for the bait, averaged over ….

Turning to chain 1 L6Y, the screen value was 0.000851 average fractional NGS count over selection days 2 and 3 (reads of this peptide / all reads for the bait, averaged over ….

With chain 1 L6M, the screen value is 0.000442 average fractional NGS count over selection days 2 and 3 (reads of this peptide / all reads for the bait, averaged over ….

Turning to chain 1 L6G, the screen value is 0.000481 average fractional NGS count over selection days 2 and 3 (reads of this peptide / all reads for the bait, averaged over ….

Regarding chain 1 L6H, the screen value is 0.000142 average fractional NGS count over selection days 2 and 3 (reads of this peptide / all reads for the bait, averaged over ….

As to chain 1 L6S, the screen value was 0.000251 average fractional NGS count over selection days 2 and 3 (reads of this peptide / all reads for the bait, averaged over ….

In the case of chain 1 L6E, the screen value is 0.00197 average fractional NGS count over selection days 2 and 3 (reads of this peptide / all reads for the bait, averaged over ….

chain 1 L6D: the screen value is 0.00436 average fractional NGS count over selection days 2 and 3 (reads of this peptide / all reads for the bait, averaged over ….

Variants of B2 are the subject of a further test. Described as above.
With chain 1 D8M, the screen value is 0.000462 average fractional NGS count over selection days 2 and 3 (reads of this peptide / all reads for the bait, averaged over ….

On to chain 1 E10G, for which the screen value is 0.00014 average fractional NGS count over selection days 2 and 3 (reads of this peptide / all reads for the bait, averaged over ….

For the variant chain 1 E10Q, the screen value is 0.000224 average fractional NGS count over selection days 2 and 3 (reads of this peptide / all reads for the bait, averaged over ….

In the case of chain 1 E10H, the screen value was 0.000923 average fractional NGS count over selection days 2 and 3 (reads of this peptide / all reads for the bait, averaged over ….

On to chain 1 K12T, for which the screen value is 0.00858 average fractional NGS count over selection days 2 and 3 (reads of this peptide / all reads for the bait, averaged over ….

Turning to chain 1 K12A, the screen value was 0.00844 average fractional NGS count over selection days 2 and 3 (reads of this peptide / all reads for the bait, averaged over ….

In the case of chain 1 E9Y, the screen value is 0.0102 average fractional NGS count over selection days 2 and 3 (reads of this peptide / all reads for the bait, averaged over ….

With chain 1 E9L, the screen value was 0.000568 average fractional NGS count over selection days 2 and 3 (reads of this peptide / all reads for the bait, averaged over ….

For chain 1 E9K, the screen value was 0.00203 average fractional NGS count over selection days 2 and 3 (reads of this peptide / all reads for the bait, averaged over ….

As to chain 1 E9F, the screen value is 0.00128 average fractional NGS count over selection days 2 and 3 (reads of this peptide / all reads for the bait, averaged over ….

Take chain 1 Q15Y: the screen value was 0.00911 average fractional NGS count over selection days 2 and 3 (reads of this peptide / all reads for the bait, averaged over ….

As for chain 1 D14R, the screen value is 0.0071 average fractional NGS count over selection days 2 and 3 (reads of this peptide / all reads for the bait, averaged over ….

In the case of chain 1 D14M, the screen value is 0.0116 average fractional NGS count over selection days 2 and 3 (reads of this peptide / all reads for the bait, averaged over ….
